B1: receptor binding protein σ1 (natural protein)
chain: MDPRLREEVVRLIIALTSDNGASLSKGLESRVSALEKTSQIHSDTILRITQGLDDANKRIIALEQSRDDLVASVSDAQLAISRLESSIGALQTVVNGLDSSVTQLGARVGQLETGLAELRVDHDNLVARVDTAERNIGSLTTELSTLTLRVTSIQADFESRISTLERTAVTSAGAPLSIRNNRMTMGLNDGLTLSGNNLAIRLPGNTGLNIQNGGLQFRFNTDQFQIVNNNLTLKTTVFDSINSRIGATEQSYVASAVTPLRLNSSTKVLDMLIDSSTLEINSSGQLTVRSTSPNLRYPIADVSGGIGMSPNYRFRQSMWIGIVSYSGSGLNWRVQVNSDIFIVDDYIHICLPAFDGFSIADGGDLSLNFVTGLLPPLLTGDTEPAFHNDVVTYGAQTVAIGLSSGGAPQYMSKNLWVEQWQDGVLRLRVEGGGSITHSNSKWPAMTVSYPRSFT
notes: 12 trimers in each particle; Seen only in the sub-particle reconstruction; also called σ1 trimer; σ1 spike
B2: membrane penetration protein µ1 (natural protein)
chain 1: MGNASSIVQTINVTGDGNVFKPSAETSSTAVPSLSLSPGMLN
chain 2: PGGVPWIAVGDETSVTSPGALRRMTSKDIPETAIINTDNSSGAVPSESALVPYIDEPLVVVTEHAITNFTKAEMALEFNREFLDKMRVLSVSPKYSDLLTYVDCYVGVSARQALNNFQKQVPVITPTRQTMYVDSIQAALKALEKWEIDLRVAQTLLPTNVPIGEVSCPMQSVVKLLDDQLPDDSLIRRYPKEAAVALAKRNGGIQWMDVSEGTVMNEAVNAVAASALAPSASAPPLEEKSKLTEQAMDLVTAAEPEIIASLAPVPAPVFAIPPKPADYNVRTLRIDEATWLRMIPKSMNTPFQIQVTDNTGTNWHLNLRGGTRVVNLDQIAPMRFVLDLGGKSYKETSWDPNGKKVGFIVFQSKIPFELWTAASQIGQATVVNYVQLYAEDSSFTAQSIIATTSLAYNYEPEQLNKTDPEMNYYLLATFIDSAAITPTNMTQPDVWDALLTMSPLSAGEVTVKGAVVSEVVPADLIGSYTPESLNASLPNDAARCMIDRASKIAEAIKIDDDAGPDEYSPNSVPIQGQLAISQLETGYGVRIFNPKGILSKIASRAMQAFIGDPSTIITQAAPVLSDKNNWIALAQGVKTSLRTKSLSAGVKTAVSKLSSSESIQNWTQGFLDKVSAHFPAPKPDCPTSGDSGESSNRRVKRDSYAGVVKRGYTR
modifications: N-myristoyl group at the amino terminus
notes: N-terminal (N-myristoyl) fragment of penetration protein μ1 of mammalian reovirus serotype Dearing 3, up to the autolytic cleavage site between N42 and P43; penetration protein μ1 of mammalian reovirus serotype Dearing 3 from the autolytic cleavage site between N42 and P43 onwards; 600 copies (200 trimers) in each particle; also called μ1; penetration protein μ1; copies: 3 + 3
B3: capsid shell protein (CSP) λ1 (natural protein)
chain: MKRIPRKTKGKSSGKGNDSTERADDGSSQLRDKQNNKAGPATTEPGTSNREQYKARPGIASVQRATESAEMPMKNNDEGTPDKKGNTKGDLVNEHSEAKDEADEATKKQAKDTDKSKAQVTYSDTGINNANELSRSGNVDNEGGSNQKPMSTRIAEATSAIVSKHPARVGLPPTASSGHGYQCHVCSAVLFSPLDLDAHVASHGLHGNMTLTSSDIQRHITEFISSWQNHPIVQVSADVENKKTAQLLHADTPRLVTWDAGLCTSFKIVPIVPAQVPQDVLAYTFFTSSYAIQSPFPEAAVSRIVVHTRWASNVDFDRDSSVIMAPPTENNIHLFKQLLNTETLSVRGANPLMFRANVLHMLLEFVLDNLYLNRHTGFSQDHTPFTEGANLRSLPGPDAEKWYSIMYPTRMGTPNVSKICNFVASCVRNRVGRFDRAQMMNGAMSEWVDVFETSDALTVSIRGRWMARLARMNINPTEIEWALTECAQGYVTVTSPYAPIVNRLMPYRISNAERQISQIIRIMNIGNNATVIQPVLQDISVLLQRISPLQIDPTIISNTMSTVSESTTQTLSPASSILGKLRPSNSDFSSFRVALAGWLYNGVVTTVIDDSSYPKDGGSVTSLENLWDFFILALALPLTTDPCAPVKAFMTLANMMVGFETIPMDNQIYTQSRRASAFSTPHTWPRCFMNIQLISPIDAPILRQWAEIIHRYWPNPSQIRYGAPNVFGSANLFTPPEVLLLPIDHQPANVTTPTLDFTNELTNWRARVCELMKNLVDNQRYQPGWTQSLVSSMRGTLDKLKLIKSMTPMYLQQLAPVELAVIAPMLPFPPFQVPYVRLDRDRVPTMVGVTRQSRDTITQPALSLSTTNTTVGVPLALDARAITVALLSGKYPPDLVTNVWYADAIYPMYADTEVFSNLQRDMITCEAVQTLVTLVAQISETQYPVDRYLDWIPSLRASAATAATFAEWVNTSMKTAFDLSDMLLEPLLSGDPRMTQLAIQYQQYNGRTFNIIPEMPGSVIADCVQLTAEVFNHEYNLFGIARGDIIIGRVQSTHLWSPLAPPPDLVFDRDTPGVHIFGRDCRISFGMNGAAPMIRDETGLMVPFEGNWIFPLALWQMNTRYFNQQFDAWIKTGELRIRIEMGAYPYMLHYYDPRQYANAWNLTSAWLEEITPTSIPSVPFMVPISSDHDISSAPAVQYIISTEYNDRSLFCTNSSSPQTIAGPDKHIPVERYNILTNPDAPPTQIQLPEVVDLYNVVTRYAYETPPITAVVMGVP
notes: capsid shell protein λ1 of mammalian reovirus serotype Dearing 3, native in the virus particle; 120 copies in each particle as λ1A/λ1B dimers; five pairs (1-5) around each vertex; also called λ1A; λ1B
B4: mRNA capping protein λ2 (enzyme)
chain: MANVWGVRLADSLSSPTIETRTRQYTLHDLCSDLDANPGREPWKPLRNQRTNNIVAVQLFRPLQGLVLDTQLYGFPGAFDDWERFMREKLRVLKYEVLRIYPISNYSNEHVNVFVANALVGAFLSNQAFYDLLPLLIINDTMIGDLLGTGASLSQFFQSHGDVLEVAAGRKYLQMENYSNDDDDPPLFAKDLSDYAKAFYSDTYEVLDRFFWTHDSSAGVLVHYDKPTNGHHYLLGTLTQMVSAPPYIINATDAMLLESCLEQFSANVRARPAQPVTRLDQCYHLRWGAQYVGEDSLTYRLGVLSLLATNGYQLARPIPRQLTNRWLSSFVSQIMSDGVNETPLWPQERYVQIAYDSPSVVDGATQYGYVRKNQLRLGMRISALQSLSDTPSPVQWLPQYTIDQAAMDEGDLMVSRLTQLPLRPDYGNIWVGDALSYYVDYNRSHRVVLSSELPQLPDTYFDGDEQYGRSLFSLARKIGDRSLVKDTAVLKHAYQAIDPNTGKEYLRSRQSVAYFGASAGHSGADQPLVIEPWIQGKISGVPPPSSVRQFGYDVARGAIVDLARPFPSGDYQFVYSDVDQVVDGHDDLSISSGLVESLLSSCMHATAPGGSFVVKINFPTRPVWHYIEQKILPNITSYMLIKPFVTNNVELFFVAFGVHQHSSLTWTSGVYFFLVDHFYRYETLSTISRQLPSFGYVDDGSSVTGIETISIENPGFSNMTQAARIGISGLCANVGNARKSIAIYESHGARVLTITSRRSPASARRKSRLRYLPLIDPRSLEVQARTILPADPVLFENVSGASPHVCLTMMYNFEVSSAVYDGDVVLDLGTGPEAKILELIPATSPVTCVDIRPTAQPSGCWNVRTTFLELDYLSDGWITGVRGDIVTCMLSLGAAAAGKSMTFDAAFQQLIKVLSKSTANVVLVQVNCPTDVVRSIKGYLEIDSTNKRYRFPKFGRDEPYSDMDALEKICRTAWPNCSITWVPLSYDLRWTRLALLESTTLSSASIRIAELMYKYMPIMRIDIHGLPMEKRGNFIVGQNCSLVIPGFNAQDVFNCYFNSALAFSTEDVNAAMIPQVSAQFDATKGEWTLDMVFSDAGIYTMQALVGSNANPVSLGSFVVDSPDVDITDAWPAQLDFTIAGTDVDITVNPYYRLMTFVRIDGQWQIANPDKFQFFSSASGTLVMNVKLDIADKYLLYYIRDVQSRDVGFYIQHPLQLLNTITLPTNEDLFLSAPDMREWAVKESGNTICILNSQGFVLPQDWDVLTDTISWSPSIPTYIVPPGDYTLTPL
notes: mRNA capping protein λ2 of mammalian reovirus serotype Dearing 3, native in the virus particle; 60 copies forming 12 pentameric turrets; also called capping enzyme λ2; turret

Molecular target: the molecule itself
Test: cryo-EM structure; asymmetric (C1) vertex sub-particle reconstructions of native MRV ISVP at 3.3 Å, asymmetric full ISVP at 4.3 Å; isolated virus particles in PBS pH 7.4; proteins assembled in the particle, in situ

Protein	stoichiometry N
B1	3
B2	3
B3	2
B4	5

Source: article PMC8263624, “Asymmetric reconstruction of mammalian reovirus reveals interactions among RNA, transcriptional factor µ2 and capsid proteins” (Nature Communications, 2021)
